Reference: patent US20050186203A1

Key:
Details in all cases: remark: other sources report otherwise
[1] = molecular target: T1, purified full-length human IGF-I receptor (affinity purified; directly coated or biotinylated and captured on streptavidin) (human), P08069; assay: ELISA, hybridoma supernatant on plate-coated purified human IGF-I receptor, anti-mouse IgG Fc-HRP
[2] = molecular target: T2, human IGF-I receptor of human tumor cells (MCF-7, NCI-H838, SaOS-2 and other lines) (human), P08069; assay: displacement of pre-bound biotinylated IGF-I from MCF-7 cells by EM164 (10-100 µg/mL) at 37° C., 30 min; capture ELISA
[3] = molecular target: T2, human IGF-I receptor of human tumor …; assay: displacement of pre-bound biotinylated IGF-I from MCF-7 cells by EM164 (10-100 µg/mL) at 4° C., 2 h; capture ELISA
[4] = molecular target: T1, purified full-length human IGF-I …; assay: ELISA titration on biotinylated human IGF-I receptor captured on streptavidin; non-linear regression for one-site binding
[5] = molecular target: T1, purified full-length human IGF-I …; assay: ELISA titration on human IGF-I receptor, similar to that of the whole antibody

B1: murine anti-IGF-I receptor antibody EM164 (antibody, V domains shown)
VH: QVQLQQSGAELVKPGASVKLSCKASGYTFTSYWMHWVKQRPGQGLEWIGEINPSNGRTNYNEKFKRKATLTVDKSSSTAYMQLSSLTSEDSAVYYFARGRPDYYGSSKWYFDVWGAGTTVTVS
VL: DVLMTQTPLSLPVSLGDQASISCRSSQSIVHSNVNTYLEWYLQKPGQSPKLLIYKVSNRFSGVPDRFSGSGSGTDFTLRISRVEAEDLGIYYCFQGSHVPPTFGGGTKLEIKR
modifications: here or on the partner: biotinylated with PEO-maleimide-biotin reagent in the captured format
Binder B1 has an absorbance units (ELISA, 405 nm) (absorbance units) [1] of 1.2, a % displacement of pre-bound biotinylated IGF-I [2] of 90% and a % displacement of pre-bound biotinylated IGF-I [3] of 50%. The Kd [4] was 0.1 nM.

B2: Fab fragment of EM164 antibody (Fab, V domains shown)
VH: QVQLQQSGAELVKPGASVKLSCKASGYTFTSYWMHWVKQRPGQGLEWIGEINPSNGRTNYNEKFKRKATLTVDKSSSTAYMQLSSLTSEDSAVYYFARGRPDYYGSSKWYFDVWGAGTTVTVS
VL: DVLMTQTPLSLPVSLGDQASISCRSSQSIVHSNVNTYLEWYLQKPGQSPKLLIYKVSNRFSGVPDRFSGSGSGTDFTLRISRVEAEDLGIYYCFQGSHVPPTFGGGTKLEIKR
modifications: here or on the partner: biotinylated with PEO-maleimide-biotin reagent in the captured format
Binder B2 has a Kd [5] of 0.3 nM.
